± gives the standard deviation.
Assay: protein stability index of a GFP-peptide fusion (GPS, HEK-293T) (PSI 1-6); higher = more stable
[1] = treatment: DMSO, c terminus: a fixed tail appended
[2] = treatment: MLN4924 1 uM, 8 h, c terminus: a fixed tail appended
[3] = treatment: DMSO, c terminus: native
[4] = treatment: MLN4924 1 uM, 8 h, c terminus: native
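Further: 24-mer peptide tiles fused after GFP, lentivirally expressed, FACS-sorted into six equal bins by GFP/DsRed ratio, decoded by Illumina sequencing, PSI is the read-weighted mean bin number.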

Row | Sequence | protein stability index [1] | protein stability index [2] | protein stability index [3] | protein stability index [4]
1 | MDVMPGEGDLPQMEVGSGSRELSL [EID1] | 4.8 ± 0.2 | 5.06 ± 0.17 |  | 
2 | TQSDLYKKTQETLSQAGQKTSAAL [TPD52L2] | 4.88 ± 0.067 | 4.93 ± 0.21 |  | 
3 | PVPVIVSNFNYFYHRETEGEEQSQ [KCNA3] | 3.81 ± 0.34 | 4.15 ± 0.28 |  | 
4 | KHFCPRTPVILVGCQLDLRYADLE [RHOBTB1] | 2.35 ± 0.49 | 2.19 ± 0.33 |  | 
5 | DQLIGQGIIVKDARLNGSVASYIL [TENT5D] | 2.3 ± 0.33 | 2.19 ± 0.45 |  | 
6 | ATKKLGFKHPVIGVHVRRTDKVGT [FUT8] | 3.12 ± 0.091 | 3.15 ± 0.21 |  | 
7 | AMGDHSKKKPGTAMCVGCGSQIHD [ISL2] | 4.18 ± 0.32 | 4.3 ± 0.26 |  | 
8 | EPVAEIGVGAYGTVYKARDPHSGH [CDK4] | 4.11 ± 0.32 | 4.1 ± 0.28 |  | 
9 | RKNPYPTKGEKIMLAIITKMTLTQ [IRX6] | 2.61 ± 1 | 2.74 ± 0.62 |  | 
10 | FVIKMPVMYRIGCLRDDVVFFIYL [CLPTM1] | 3.05 ± 0.39 | 3.06 ± 0.25 |  | 
11 | IVILENIAVAWIYGTKKFMQELTE [SLC6A17] | 3.05 ± 1 | 2.92 ± 0.2 |  | 
12 | PQLRICLRVSPAEQPRLEFLMRKC [FBXO33] | 2.15 ± 0.48 | 2.11 ± 0.22 |  | 
13 | GFFEEKGAIFCPPCYDVRYAPSCA [PDLIM7] | 2.26 ± 0.22 | 2.58 ± 0.3 |  | 
14 | NVLKIAPESAIKFMAYEQIKRLVG [SLC25A25] | 3.07 ± 0.54 | 3.04 ± 0.67 |  | 
15 | EKRGFTSHFVFVIEVKTKGGSKYL [NCF4] | 3.02 ± 1.1 | 3.64 ± 1.1 |  | 
16 | AQTFIALCATDFKFAMYPPSMIAT [CCND2] | 2.75 ± 0.71 | 3.04 ± 0.62 |  | 
17 | YIPSYTSWYPSAHQEAMQQPQLM [DLX1] |  |  | 2.63 ± 0.36 | 2.44 ± 0.26
18 | QIVTKKIDLSHVTSKCGSLKNIRH [MAP2] | 2.67 ± 0.039 | 2.71 ± 0.2 |  | 
19 | DRVVAFMDHIRIFQEQVEKLKALH [NR2F2] | 2.28 ± 0.36 | 2.22 ± 0.36 |  | 
20 | PGRRDEDAGEGIQCSQRMLSFSDA [TMEM175] | 5.07 ± 0.18 | 4.91 ± 0.3 |  | 
21 | MSWAKLARQATNLKVNFFFERIMK [FBXO39] | 2.34 ± 0.19 | 2.22 ± 0.35 |  | 
22 | REFDVRQTPQVNINPFTPDSLLLH [WEE1] | 3.41 ± 0.47 | 3.52 ± 0.15 |  | 
23 | GPSLVPGKTPTVRAALICLTLVLV [CD207] | 2.28 ± 0.44 | 2.73 ± 0.62 |  | 

Row | Sequence | protein stability index [1] | protein stability index [2] | protein stability index [3] | protein stability index [4]
24 | NHANGLTLVSRAHQLVMEGYNWCH [PPP2CA] | 2.6 ± 0.16 | 2.49 ± 0.29 |  | 
25 | LDPSFPVEFVRHGDIIRLEHKETS [POMT2] | 5.71 ± 0.17 | 5.59 ± 0.25 |  | 
26 | GHGYDSKKQQELTAAVLGLICEGL [ZBED1] | 2.34 ± 0.31 | 2.09 ± 0.29 |  | 
27 | LWQFLLELLTDKSCQSFISWTGDG [ETS1] | 2.96 ± 0.47 | 3.13 ± 0.46 |  | 
28 | LGKILSVELGKQKKKYMPYNHQHK [FADS1] | 2.55 ± 0.12 | 2.69 ± 0.23 |  | 
29 | YSEYPECCVDVKPISQEKIESERA [DUSP5] | 4.57 ± 0.39 | 4.69 ± 0.66 |  | 
30 | REAQQYSEALASTRILKHSPESSR [GLIPR2] | 4.92 ± 0.27 | 4.92 ± 0.3 |  | 
31 | PGPAPGSPGELEEDLLLPGACPGA [WEE1] | 5.24 ± 0.52 | 5.49 ± 0.13 |  | 
32 | DEGGFTCFFRDHSYQEEAAMELKV [MOG] | 3.57 ± 0.26 | 3.7 ± 0.34 |  | 
33 | PACLGQPHTPGKPTSSCTSRSAPP [FOXJ1] | 4.51 ± 0.13 | 4.69 ± 0.11 |  | 
34 | MEVLPCSRVAHIERTRKPYNNDID [GALNT9] | 2.46 ± 0.26 | 2.44 ± 0.28 |  | 
35 | AGGEENMTETDAFYKREMFDPAEK [CASP6] | 5.13 ± 0.32 | 5.37 ± 0.3 |  | 
36 | DDYLHKDTGETSMLKRPVLLHLHQ [STEAP1] | 3.31 ± 0.21 | 3.17 ± 0.16 |  | 
37 | NMLFQQNKDGIGEICLWGRHIFMG [ACSBG2] | 2.3 ± 0.33 | 2.3 ± 0.54 |  | 
38 | VKDTDDVPMILVGNKCDLEDERVV [RAP1B] | 4.65 ± 0.45 | 5.02 ± 0.16 |  | 
39 | EDIDTSMYDNELWAPASEGLKPGP [SERTAD1] | 4.84 ± 0.19 | 4.76 ± 0.17 |  | 
40 | PPPHLLPEKHQVPEKLIWGDQDPL [WDR88] | 4.53 ± 0.23 | 4.44 ± 0.15 |  | 
41 | AFDYNSLSPTQRQKNFELAFTMAE [SMTNL2] | 2.76 ± 0.3 | 3.09 ± 0.29 |  | 
42 | QPGPSGAPAQRATRGFLRSPSSDL [RETREG3] | 3.97 ± 0.24 | 4.27 ± 0.23 |  | 
43 | IIKMATARQETKEMARKVIEHCSN [ZER1] | 2.94 ± 0.35 | 3.08 ± 0.13 |  | 
44 | ELCRDAAQFRLLSEVEELNMSLTA [TEKT4] | 2.85 ± 0.34 | 2.77 ± 0.28 |  | 
45 | SSISPGLHSFTDHQRLMKRRKSV [KCNK9] |  |  | 5.64 ± 0.088 | 5.47 ± 0.23
46 | FHKDCASRVNNASYCPHCGEESSK [EHMT1] | 3.45 ± 0.15 | 4.05 ± 0.47 |  | 

Row | Sequence | protein stability index [1] | protein stability index [2] | protein stability index [3] | protein stability index [4]
47 | KLPLQIDCLAAWEEWLLVGTKQGH [VPS39] | 2.43 ± 0.41 | 2.47 ± 0.14 |  | 
48 | PATGRSGPLPPPPPGAGGPPMPPP [WAS] | 4.74 ± 0.28 | 4.88 ± 0.22 |  | 
49 | EVLREQAGGDATENFEDVGHSTDA [CYB5A] | 5.57 ± 0.43 | 5.67 ± 0.19 |  | 
50 | EESFRQMVVIHKEIPTGKKDHECS [ZNF232] | 4.84 ± 0.31 | 4.77 ± 0.11 |  | 
51 | IIISEPMGYMLFNERMLESYLHAK [CARM1] | 2.66 ± 0.41 | 2.51 ± 0.35 |  | 
52 | ETAPTTVDRTHALMKKIGQCPMRV [CRYL1] | 3.59 ± 0.14 | 3.68 ± 0.2 |  | 
53 | QQQVKTNGAGVTVLRREISELRTK [FBXO28] | 4.32 ± 0.19 | 4.44 ± 0.32 |  | 
54 | LAIQEMVSLTSPSAPPTSRTSSGN [PPFIA4] | 3.88 ± 0.19 | 4.05 ± 0.17 |  | 
55 | DYLYTKQLSPNLDLDPLELIALAN [RHOBTB1] | 2.31 ± 0.28 | 2.3 ± 0.33 |  | 
56 | GDPRPKIVWNKKGKKVSNQRFEVI [PTPRD] | 2.94 ± 0.24 | 3.46 ± 0.64 |  | 
57 | GLLLRGAVDGILHMFTPKLDKMLD [SLC6A17] | 2.35 ± 0.47 | 2.43 ± 0.66 |  | 
58 | AEVQAKLENAEVLELTVRRVQGVL [HES6] | 2.71 ± 0.38 | 2.58 ± 0.25 |  | 
59 | KISVPRDVMLEELSLLTNRGSKMF [MYOZ1] | 2.8 ± 0.28 | 2.76 ± 0.35 |  | 
60 | YVLEFSDHPGIHEPLEPEVKYVGN [CPN1] | 3.17 ± 0.27 | 3.3 ± 0.1 |  | 
61 | CRYPYEYEGGHIKGAVNLHMEEEV [CDC25A] | 3.8 ± 0.34 | 3.7 ± 0.33 |  | 
62 | EPDANFPQFLHEGLSKPVYVINWF [FAM104B] | 2.37 ± 0.43 | 2.48 ± 0.36 |  | 
63 | QIYHCTKRKEEECSTTDHPYKKPY [TBX5] | 3.92 ± 0.095 | 4.25 ± 0.26 |  | 
64 | ESCEKNDPLSLLDDSKFPIEDTPL [PCDHGA10] | 5.5 ± 0.34 | 5.463 ± 0.028 |  | 
65 | PGQEAQRVVCGIDSSMILTVPGQA [NEK8] | 3.78 ± 0.23 | 3.81 ± 0.22 |  | 
66 | HRAHHKFSETHADPHNSRRGFFFS [SCD] | 3.08 ± 0.18 | 3.05 ± 0.3 |  | 
67 | GRGDEASEEGQNGSSPKSKTKWTK [ADD1] | 5.22 ± 0.16 | 5.36 ± 0.36 |  | 
68 | EEVSEVESFILDQDDLENPMLETA [ANKRD17] | 5.69 ± 0.23 | 5.16 ± 0.57 |  | 
69 | VQREKDLPNYNWNSFGLRFGKREA [KISS1] | 3.28 ± 0.12 | 3.19 ± 0.18 |  | 

Row | Sequence | protein stability index [1] | protein stability index [2] | protein stability index [3] | protein stability index [4]
70 | LAELQEQLKAVHEQLAALSQAPVN [BRD3] | 4.2 ± 0.3 | 4.24 ± 0.43 |  | 
71 | NPKWTKWLQKLCCPCCFGRDCLVL [PI4K2A] | 2.79 ± 0.3 | 2.72 ± 0.15 |  | 
72 | ELRDISSMAMEYFDEKIVPILKRK [FBXO28] | 2.78 ± 0.36 | 3 ± 0.45 |  | 
73 | PEEELDFFEILRLFFPVIYDVKYL [CNOT7] | 2.35 ± 0.51 | 2.47 ± 0.61 |  | 
74 | TVEEAKAEKETELSLQKEQLQLKI [TRIM29] | 5.1 ± 0.27 | 5.33 ± 0.3 |  | 
75 | PSVPDNAELVLLTLGQAWQGYVSD [DFFB] | 2.64 ± 0.52 | 2.84 ± 0.32 |  | 
76 | MNYSEIESKVREATNDDPWGPSGQ [CLINT1] | 4.84 ± 0.22 | 4.96 ± 0.14 |  | 
77 | DGISIPELREACDYLCISFEYSTI [BTBD10] | 3.18 ± 0.93 | 2.87 ± 0.56 |  | 
78 | SEVTELRRVLQGLEIELQSQLSMK [KRT16] | 2.33 ± 0.2 | 2.33 ± 0.31 |  | 
79 | MHSFPPLLLLLFWGVVSHSFPATL [MMP1] | 3.14 ± 0.31 | 3.12 ± 0.25 |  | 
80 | CERHEKGVLHKHQRALHKYSLMKR [SNX8] | 3.56 ± 0.29 | 3.8 ± 0.31 |  | 
81 | RAESTANAGQSDNRSLAEACSEGD [ANKRD17] | 5.55 ± 0.24 | 5.53 ± 0.16 |  | 
82 | EQHAGTSEGLHLAGTAGHPPSGSQ [FBF1] | 5.19 ± 0.3 | 5.2 ± 0.15 |  | 
83 | FCLQKLISLHPFNPWNWGKLAEAY [C8orf76] | 2.85 ± 0.49 | 2.82 ± 1.3 |  | 
84 | AHQHRDKMQQSKNQVVSSTNGELN [CSNK1G3] | 5.02 ± 0.42 | 5.1 ± 0.25 |  | 
85 | LYVRRVFIMDSCDELIPEYLNFIR [HSP90AB1] | 2.37 ± 0.58 | 2.68 ± 0.86 |  | 
86 | RKDHLKNHLQTHDPNKMAFGCEEC [PLAGL1] | 4.77 ± 0.16 | 4.93 ± 0.54 |  | 
87 | FAGGFVDFGACDGGLLTGNEKITM [KRT13] | 2.73 ± 0.32 | 2.56 ± 0.079 |  | 
88 | RAPQLHLEYRFYEQLGSGDGIPQV [CSNK1G3] | 3.36 ± 0.21 | 3.34 ± 0.1 |  | 
89 | KRGSIPTSLTALSLASASPPLSGR [PPFIA4] | 3.99 ± 0.2 | 4.17 ± 0.28 |  | 
